From PMC9735246 (Cell, 2022)

How the values were obtained:
Human β-tubulin (TBB5) [1] = molecular target: T1, Human β-tubulin (TBB5) (human, UniProt P07437 1-444); assay: native gel or EMSA
Human β-tubulin (TBB5) [2] = molecular target: T1, Human β-tubulin (TBB5); assay: cross-linking
Human α-tubulin (TUBA1B) [3] = molecular target: T2, Human α-tubulin (TUBA1B) (human, UniProt P68363 1-451); assay: cross-linking
Human α-tubulin (TUBA1B) [4] = molecular target: T2, Human α-tubulin (TUBA1B); assay: native gel or EMSA

T1 sequence (P07437 whole entry): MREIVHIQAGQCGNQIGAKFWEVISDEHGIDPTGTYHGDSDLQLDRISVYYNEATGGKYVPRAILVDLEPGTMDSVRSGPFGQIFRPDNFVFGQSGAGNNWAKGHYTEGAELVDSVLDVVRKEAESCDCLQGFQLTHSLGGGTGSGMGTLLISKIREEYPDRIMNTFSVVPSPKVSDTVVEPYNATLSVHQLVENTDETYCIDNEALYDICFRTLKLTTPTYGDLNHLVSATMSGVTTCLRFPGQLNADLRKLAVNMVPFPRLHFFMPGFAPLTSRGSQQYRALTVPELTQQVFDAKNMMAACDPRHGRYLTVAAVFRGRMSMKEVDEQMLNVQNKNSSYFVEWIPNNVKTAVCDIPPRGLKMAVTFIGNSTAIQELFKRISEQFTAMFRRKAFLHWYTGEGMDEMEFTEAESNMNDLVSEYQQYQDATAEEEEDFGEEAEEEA
T2 sequence (P68363 whole entry): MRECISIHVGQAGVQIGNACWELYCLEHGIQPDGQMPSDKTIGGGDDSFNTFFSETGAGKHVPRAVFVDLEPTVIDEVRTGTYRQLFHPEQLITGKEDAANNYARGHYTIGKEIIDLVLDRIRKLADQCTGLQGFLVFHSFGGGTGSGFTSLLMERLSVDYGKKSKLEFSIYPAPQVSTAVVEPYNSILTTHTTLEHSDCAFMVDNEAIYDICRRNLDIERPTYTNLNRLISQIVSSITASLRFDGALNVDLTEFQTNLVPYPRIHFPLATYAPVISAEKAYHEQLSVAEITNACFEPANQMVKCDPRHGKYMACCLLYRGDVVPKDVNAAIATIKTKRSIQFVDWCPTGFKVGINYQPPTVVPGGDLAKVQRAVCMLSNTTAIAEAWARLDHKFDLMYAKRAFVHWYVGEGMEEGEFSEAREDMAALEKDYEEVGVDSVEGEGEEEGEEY

| binding result (Human β-tubulin (TBB5) [1]) | binding result (Human β-tubulin (TBB5) [2]) | binding result (Human α-tubulin (TUBA1B) [3]) | binding result (Human α-tubulin (TUBA1B) [4]) | Binder |
| --- | --- | --- | --- | --- |
| binds | – | – | – | TBCA (natural protein, UniProt O75347 1-108, looked up) MADPRVRQIKIKTGVVKRLVKEKVMYEKEAKQQEEKIEKMRAEDGENYDIKKQAEILQESRMMIPDCQRRLEAAYLDLQRILENEKDLEEAEEYKEARLVLDSVKLEA |
| – | binds | binds | – | PFD3, subunit of human Prefoldin (natural protein) MAAVKDSCGKGEMATGNGRRLHLGIPEAVFVEDVDSFMKQPGNETADTVLKKLDEQYQKYKFMELNLAQKKRRLKGQIPEIKQTLEILKYMQKKKESTNSMETRFLLADNLYCKASVPPTDKVCLWLGANVMLEYDIDEAQALLEKNLSTATKNLDSLEEDLDFLRDQFTTTEVNMARVYNWDVKRRNKDDSTKNKA |
| – | – | – | binds | TBCB (natural protein, UniProt Q99426 1-244, looked up) MEVTGVSAPTVTVFISSSLNTFRSEKRYSRSLTIAEFKCKLELLVGSPASCMELELYGVDDKFYSKLDQEDALLGSYPVDDGCRIHVIDHSGARLGEYEDVSRVEKYTISQEAYDQRQDTVRSFLKRSKLGRYNEEERAQQEAEAAQRLAEEKAQASSIPVGSRCEVRAAGQSPRRGTVMYVGLTDFKPGYWIGVRYDEPLGKNDGSVNGKRYFECQAKYGAFVKPAVVTVGDFPEEDYGLDEI |
| – | binds | binds | – | PFD1, subunit of human Prefoldin (natural protein) MAAPVDLELKKAFTELQAKVIDTQQKVKLADIQIEQLNRTKKHAHLTDTEIMTLVDETNMYEGVGRMFILQSKEAIHSQLLEKQKIAEEKIKELEQKKSYLERSVKEAEDNIREMLMARRAQ |
